Assay: soluble fraction after stress (log2 fold change); higher = more stays soluble; pooled small domains, quantitative proteomics
Details: stress: pH 4
Outline: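 Aggregation propensity is read out as the fold change in how much of each domain remains soluble after acid stress. The custom small-domain libraries were pooled, held at pH 4 and analysed with high-throughput quantitative proteomics. On the log2 scale used, higher values mean more of the domain stayed soluble.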

Sequence	soluble fraction (log2)
HMRPRQDRSEETRDRILDAVVELIAERGLAGVSHRAVADRAGVSLSATSYYFGSKAELERAALEEHYRR	-0.992
HMRPSGEAVNAAYRLLKGANPSGNEGDLIQRAQEVAAILPKLNRSSAAAFAKDAKANGLTQAETIALWKGS	0.163
HMRPTYRTRLEVLINNPAISGRDLDFAQSLLSYYERKGRLSAGRVKWVTTLEERYSPENLAASAAK	-0.306
HMRQFEPVEGYNPYADKNELHGYEYWGAKFADSRSPEETAWIKQQIDDENEDRRFISEAGLA	-0.446
HMRQQQISAAIKTSVNGTVDYYVRRLPERDPRGDFLEVWDDLQKVIQAAHGIQVSHDELYEYFRRLK	-1.19
HMRQQSLHSLYRDHHSWLQNWLRRQLGNTWDAADLSQDTFIKVLASSQSVAEIREPRAYLLTVGKRL	-0.0586
HMRQSDIAAAFRESILRSSKGFQYLHTRDFVTALRRRGIHLSEVEANSWIAREKTYFVDSALDHSENRLWI	-0.634
HMRQSIHTALQLLTPREEEVLNLLVSGKSNKQVAEHFSLSSKTIERHRSSVMRKLDASSFAQLVRIAALR	-0.404
HMRQYPSGVFKEEGVKAVYIHAGTPFLVIAAQYKIPLARLFEWNNLLPSTEARISQVIYLERPG	0.238
HMRRARVAGKGHFTGEDAMAVYRELEALFGETETLYLPGHRPFEAVLSKLALIGVPEKNTVPYTFAFVET	-1.09
HMRREIRLTVTEEIVLMKFLLTQIPYKNRDNFKTLLNDRQIRVNGSVVTWYNHPLKPGQEVTIGWFKM	-0.628
HMRRPRGVFNLVPGKRFGFITPDGGGEDVFAHLANVRAGHVAEDRNAVEYGIGRGPDGRDQAVDIVPMP	0.00891
HMRRQRNPEIFDQLVNKFHFTFTQTQQLKQLIKRWHMLFPGKSLKSAIQGYKSAKEILTYINDSLDVVE	0.0668
HMRRRTLRQGATGSDVHAVQRLLNVDGAGLRTDGIFGPATERAVIAYQRKHGLAVDGVVGRETWTALLG	-0.0548
HMRRSDLVTQGDEILKRLQWNQQQAKDFLNQHLKASSRQQLTDEQLLNFNMLLEEQLVKSME	-0.0311
HMRRSLIGPTVRERRRALGITQSRLAAEVGISASYLNLIEGDKRNIGGALLQRIAGALGLALD	0.0185
HMRRTVIVTAAHAEIRERPDANAPLVFSAEQKVSLDYQETAPGGWVKVRHRDGQSGYVRTNQI	-0.159
HMRRVGTALNRSHKVSYGESIQSIAARYNVNPTMLREYNRLKPEATITPGQILRIPPATIAS	-0.195
HMRRVRRTRRLLQDGLLGLMQHKAVADISVKELAEAADVARATVYVHFKDPADVLHQLEQGLY	-0.151
HMRSDHVFTSHLARRDKYISELESLSDSARDDHIQTIKEEDEYLLKYRRTRNLFGIPLNDEMKQFEPFNY	-1.16
HMRSEILNLLREKSPQPVSGQDLANHFGITRTAVWKHIQSLKKMGYGIEAYTKKGYVLVSVPN	0.175
HMRSGEDESFSAGLLEYPHYTRPAEFEGHRIPDILTSGDHAKVDAWRQEMSEHITRERRPDLWEMYKKK	0.0228
HMRSHLSANLQRLRHIAGLTQKDLALAANLPRATLASLEQGEANPRLDTLLAVASALQVGLDELIAAP	-1.1

Sequence	soluble fraction (log2)
HMRSIMAVSNYRHKKILEMVYQRKSVSADELAAEFGVSKITIRRDLDTLAMDKLLERTRGGAISISD	-0.128
HMRSRHYRFSTPFLDRLIAEIDWNSDNALSIFNQKLVHFDFLKYFSAIQPGSIVEIENLNFIWTGKRLEAH	-0.71
HMRSVLSDEIYLLIRKMIFNYEILPGAKVNIDALAKKLDVSQTPVREALSRLESDGLIVKEPLKGFRATD	-0.239
HMRSVPNVAGLGMDGAAFQLGKAGFAIGTITPADDPKAVVGSIQRTEPAAGTVADRDTVVNLFQV	0.22
HMRSVTLQTDREGDILYVDGKQIGVSPQRLELSYGVHTIRAERGEQHTEKELEVTETGGETVVTLGFG	-0.0908
HMRSYTPGSAFRLSSVPVYNAETGPSIGVRSGTYYIHSLPVSNGRIRMTNLISRVGKPGQVSFWVEISR	0.0269
HMRTAELEVWDDDELNDVVKLIQNNHNINTLKLRFQENVSFSGLSLIAAVLTKQSIILEIEY	-1.32
HMRTDQYHYLAWKQVADELGIPFDEQVNERLRGVSRMASFDIILERYDGTMSDEEKIHWTDKKNEIYKSM	-1.68
HMRTGLSGMIGEIGIVKQAIDPEGKVAVHGELWKARADVALAAGQTVRVVAVDGLTMTVEATDSK	0.0837
HMRTIPDALIGRPYESVETAIVLEGLQAKRTEVFHPTIRPGTVIRLEPTSGSELLRDGVVEIFVSQGPETT	-1.47
HMRTITIDDSIAGKRLDEALTLLGAESSRTKVKLLFSSPNGVLVNGEKEKPHYRVEAGDVIQFGELPKK	-0.104
HMRTKEGLASQLEKIPGIGPVKRKALLKKFGSIDAIAAASKEELMLTDGITSSLADAIRDYF	0.391
HMRTLKDSTEYLIRSMLLRGEMKVGEIYSANALAKELNISNSPVREAMMSLVDRGLLENVRNRGFRVV	-0.115
HMRTLRENIMDYFKQQTIIQKSSVILLPMSKRQLADYFGVQRPSLFRELKKLKEEGIIEINNRTITIK	-0.0293
HMRTSIWTAIAHSLRSDIGSGVYGPDDKLPTESALAARFGVNRHTVRHAIKALTDEGLVLPRRGAGVFVTS	-0.207
HMRTSPGADYEKTYYTIQSGDNLGAIAEKMGVSVADLKDWNDISGTKIYAGKKLVIYVKKGST	-0.209
HMRTTTGSEGMIGSIGKAKTDLAPDGKIFIHGELWDATSSSPVSAGQKIEVTQIEGLKLHVKPVL	0.12
HMRTVLSDETYLRIREMLLTHDIAPGERINIDALARELDVSQTPVREALARLESEDLVTKEPLRGYTATK	-0.123
HMRTYEHALTEEEKELILIVSNLSEYKSLPPSQIVPKLADLGIYIASESSFYRVLRAHNQLHHRGR	-1.27
HMRTYYEILGVSKNASLHEIQKAYRELALKYHPKNNSDPTAEEKFTQINEAYTHLSDAARRRSYDDL	0.362
HMRVGADLTQRERELLALMAQGMSNQEIAKRLEIAVPTVKFHITNILDKLQVGNRTEAVIAALEHKLVP	-0.767
HMRVKLVKKSILASGGENIRVDKFLSNHILTMTRTQIKKLFLDGLVQVNKSFVKPGSILKGNEIITFSIPE	-0.412
HMRVNINVSENILDWVMKRVNPSVLSSKQGELLYAWKEGRKVPTYNQIEKMSKVTGIPLGYFFLEKPPVE	0.411

Sequence	soluble fraction (log2)
HMRVPQWLVDKIAAAGIDTHRSGPALKALAAKAGTPEQLDQAIARAKALRRRTGSTQSLNVGLLGSILEGT	-0.0808
HMRVQELARDLGVEADTLIALLRQMGIPVTGARSAINDAQQAKVLAKIERERRAGHSDPAKAIQAVLEEAS	0.0597
HMRVSNADALIGRRGKANSDIRRGDYGWVAIDGDVWKSKLADDITEDIPMGAIVEVLSRDSIILTVKP	-1.08
HMRWAAIMGREVAAHSTPESLVEGKLHIRTDTTAWATQLRLMSADIVRRLNEVLGEGTVLEVDVRG	-1.12
HMRWSDQKEIVTLSLDHVLVEKGRKTKEYSWREFRTFTAFEIKKSSKDQINLGFKSKGNTVIIGNF	-0.438
HMSAAELFEERQRQYLRGRKSTKNIADNHGTIILRAGETITDQAIDKAKVAGKLVELVMNNE	0.144
HMSADDSDDRKGIDAWLTQLLANGSVKATEVYSAADAAGYSKDQAKRAKRRLAIEAVREAMDGPWFWRLD	-0.742
HMSAEDQRRASQEAAYRFMQVMAGNEAGFEDAARALFAGDNHRFEVLIQSWPDDVRDHVSLLSVDAFA	-1.78
HMSAEVMLRRLIDENDPSSENARYILAVMLERKKILAPVDVKNEKKSKMLFYEHQKTGEAFIVRDP	-0.17
HMSAEVSEIEIQRIISYYRNQNGVPDKYNEIFDRIAAQYTDEQLKVISNFLPSDVKQYLSFNNEKYKSLG	-0.955
HMSAGKKSFTNSEFRRFLDALGEGLIVKHKKLGEGVVVEIRGDKAVIQFGDEQRLYELKTLYEYDLLR	-0.874
HMSALAQDGDLVQLQGAGYKSHILRLKAGEVLQTHRGVIQHDAVIGQPWGARLQSHTGSPFYLFQPGLADL	-0.187
HMSALTELPVKTVNGKKYHYYVVKQHETVYALSKRFGITPEQLIKYNPSAEDGLQIDQELLFPATEI	-0.282
HMSANVSMEEALRRTSQAHSLAGKWMRRVLQMAQGRDLIEQMQREAQEAHLPELIGMSVQLEFIRRG	-0.363
HMSAPEGWMNRGDLRDNFRIQYPVTDRIIASYRESHPEWFGTYLSKTSKSLEYFHPDLVAKVREAAN	-0.145
HMSAPQKWDGSLQDFIRFKQEAKTLMDNIPNKRLALNAILETISDGKMRKRLAKYDGPESALKSLELEFGN	0.0286
HMSAQDLIVRRDSARIEARVTEISPTEIRYKRASNPDGPTYVLPLGDVRSIRYANGEEEVFAPA	-0.0969
HMSAQQTFLRDAMRRLNMTRDSFAERIGVRRRALDTWLLPEDSSEYRTMPSIVEKFVGEILGREA	0.112
HMSARKVTVALHTRDHADRLRRLLKHEGVSADLVAARLSHKLTDHPIEVRVNEDDIPAVLRIIENIEIF	-0.707
HMSASLPAAVEDPDLPYRVGAKLRHARWGEGLLVGIQREGSDVIATVHFASVGRKRLSLQYAHLEE	-0.785
HMSATIMVLRASEDIPVGTEIKDNHLTTVEVGSYGLPEGAINDKDTVLGKVAQTNIIKGDYFFPQKLGG	-1.18
HMSDAQIKASINDLWFKYNLETFAKLNLNVNQGRVLVTGIVQNPEHRLEAIRLVWTVDGVQQVINEIQVAE	-1.23
HMSDDIPVHYRLDVNDAARALKLLTDNGFSAETAESGLNVYMTRLQSAEAARLLVENNIAVYGLTAV	-0.196
